Assay results as given in patent publication US20110183888A1.
Square brackets hold non-standard residues; d marks the D form. Ends that are not written are not given here.

B1: L-TAT-IB1(s) (peptide)
peptide: GRKKRRQRRRPPRPKRPTTLNLFPQVPRSQD
B2: D-TAT-IB1(s) (peptide)
peptide: [dD][dQ][dS][dR][dP][dV][dQ][dP][dF][dL][dN][dL][dT][dT][dP][dR][dK][dP][dR][dP][dP][dR][dR][dR][dQ][dR][dR][dK][dK][dR]G

Assays:
Test in all cases: cell-based or functional assay
JNK1, P45983 = molecular target: JNK1, P45983
Sequence of JNK1, P45983 (P45983 whole entry, the tested form may be a part): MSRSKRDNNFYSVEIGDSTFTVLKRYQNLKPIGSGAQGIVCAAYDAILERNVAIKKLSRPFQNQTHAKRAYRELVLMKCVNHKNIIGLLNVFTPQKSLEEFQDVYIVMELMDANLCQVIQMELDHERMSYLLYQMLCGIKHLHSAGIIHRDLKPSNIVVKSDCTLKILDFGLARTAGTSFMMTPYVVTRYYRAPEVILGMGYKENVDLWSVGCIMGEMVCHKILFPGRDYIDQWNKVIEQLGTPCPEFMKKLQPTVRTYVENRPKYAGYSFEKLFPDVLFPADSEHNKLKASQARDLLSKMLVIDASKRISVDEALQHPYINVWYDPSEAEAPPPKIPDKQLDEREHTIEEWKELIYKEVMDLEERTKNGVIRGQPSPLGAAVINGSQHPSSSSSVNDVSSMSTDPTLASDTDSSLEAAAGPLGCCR

JNK2, P45984 = molecular target: JNK2, P45984
JNK3, P53779 = molecular target: JNK3, P53779
Sequence of JNK3, P53779 (P53779 whole entry, the tested form may be a part): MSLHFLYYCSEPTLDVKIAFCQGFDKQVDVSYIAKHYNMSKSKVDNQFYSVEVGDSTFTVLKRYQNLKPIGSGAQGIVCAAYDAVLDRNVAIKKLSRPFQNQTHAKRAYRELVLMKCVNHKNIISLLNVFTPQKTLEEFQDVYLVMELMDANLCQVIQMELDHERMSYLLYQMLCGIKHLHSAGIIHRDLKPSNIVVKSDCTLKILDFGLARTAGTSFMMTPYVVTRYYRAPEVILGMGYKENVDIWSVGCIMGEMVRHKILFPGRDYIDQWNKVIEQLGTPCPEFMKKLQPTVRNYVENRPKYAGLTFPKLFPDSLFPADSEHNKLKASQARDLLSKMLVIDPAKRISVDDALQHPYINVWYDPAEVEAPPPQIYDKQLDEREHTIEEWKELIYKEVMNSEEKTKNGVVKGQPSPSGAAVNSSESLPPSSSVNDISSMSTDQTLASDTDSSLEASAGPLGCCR

| Binder | inhibition of c-Jun, ATF2 and Elk1 phosphorylation by JNKs (solid phase kinase assay, 33P, SDS-PAGE) (JNK1, P45983) | inhibition of c-Jun, ATF2 and Elk1 phosphorylation by JNKs (solid phase kinase assay, 33P, SDS-PAGE) (JNK2, P45984) | inhibition of c-Jun, ATF2 and Elk1 phosphorylation by JNKs (solid phase kinase assay, 33P, SDS-PAGE) (JNK3, P53779) | inhibition of GST-Jun (aa 1-73) phosphorylation by recombinant JNK; fold less efficient than L-TAT-IB1(s) (JNK1, P45983) | inhibition of GST-Jun (aa 1-73) phosphorylation by recombinant JNK; fold less efficient than L-TAT-IB1(s) (JNK2, P45984) | inhibition of GST-Jun (aa 1-73) phosphorylation by recombinant JNK; fold less efficient than L-TAT-IB1(s) (JNK3, P53779) |
| --- | --- | --- | --- | --- | --- | --- |
| B1 | 2.5 µM | 2.5 µM | 2.5 µM | – | – | – |
| B2 | – | – | – | 10 to 20 fold | 10 to 20 fold | 10 to 20 fold |
